We go through 1 molecule from publication PMC7677135 (Biophysical Journal, 2020).

This assay has as its target T1, PDK1 50–359 [Y288G,Q292A] (human, UniProt O15530 50-359, Y288G | Q292A).
T1 sequence (looked up): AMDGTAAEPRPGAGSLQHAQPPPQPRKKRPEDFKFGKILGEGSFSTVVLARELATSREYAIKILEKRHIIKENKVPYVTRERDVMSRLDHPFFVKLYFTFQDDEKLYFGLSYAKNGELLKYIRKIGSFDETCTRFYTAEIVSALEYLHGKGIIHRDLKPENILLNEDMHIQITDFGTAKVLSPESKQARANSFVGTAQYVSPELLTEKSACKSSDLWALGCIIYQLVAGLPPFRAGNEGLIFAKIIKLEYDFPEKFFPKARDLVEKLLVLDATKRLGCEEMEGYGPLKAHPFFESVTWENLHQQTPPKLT
The assay is described as follows: HDX-MS.

As for REPRILSEEEQEMFRDFDYIADWC [PIFtide], the binding result is “binds”.
